From the supplement of paper PMC9112550, “Optimization of the antimicrobial peptide Bac7 by deep mutational scanning” (BMC Biology, 2022) come the findings set out here.

The series concerns Escherichia coli TOP10. Nature of the series: shrunken log2 fold change of peptide-encoding DNA abundance (4.5 h post-induction vs induction); higher = less antimicrobial activity (less host growth inhibition). The settings on record: time post-induction: 4.5 h; library: site-saturation at positions 5, 18, 19, 20.
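Note: peptides expressed intracellularly from a pBAD plasmid library in pooled LB shake-flask culture, induced with 0.3% L-arabinose, DNA abundance read by NGS, three biological replicates, DESeq2 with apeglm shrinkage.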

With RRIRRRPPRLPRPRPRPADFPRP, the “shrunken log2 fold change” value is 0.115. Then RRIRSRPPRLPRPRPRPQHLPRP, with -0.372; and RRIRWRPPRLPRPRPRPYRSPRP, with 0.0201; and RRIRLRPPRLPRPRPRPPKYPRP, with -0.154. As to RRIRKRPPRLPRPRPRPHSNPRP, the “shrunken log2 fold change” value was 0.095. For the sequence RRIRKRPPRLPRPRPRPWMRPRP, the “shrunken log2 fold change” value was 0.373. In the case of RRIRARPPRLPRPRPRPTYVPRP it was 0.504.

For the sequence RRIRQRPPRLPRPRPRPEHNPRP, the “shrunken log2 fold change” value is -0.137. Then RRIRWRPPRLPRPRPRPAVNPRP, with 0.185; and RRIRTRPPRLPRPRPRPVITPRP, with 0.0105; and RRIRPRPPRLPRPRPRPKNSPRP, with -0.144.

Take RRIRVRPPRLPRPRPRPLRNPRP: the “shrunken log2 fold change” value is 0.408. In the case of RRIRWRPPRLPRPRPRPAGTPRP it was 0.349; in that of RRIRCRPPRLPRPRPRPWHDPRP, -0.142; in that of RRIRDRPPRLPRPRPRPCREPRP, 0.123. In the case of RRIRWRPPRLPRPRPRPVTLPRP it was -0.147; in that of RRIRYRPPRLPRPRPRPDGTPRP, 0.0319; in that of RRIRMRPPRLPRPRPRPADSPRP, 0.264. In the case of RRIRPRPPRLPRPRPRPPVEPRP, the “shrunken log2 fold change” value is 0.0793. Regarding RRIRQRPPRLPRPRPRPKFNPRP, the “shrunken log2 fold change” value was -0.271. For the sequence RRIRCRPPRLPRPRPRPHKNPRP, the “shrunken log2 fold change” value was -0.418. Then RRIRERPPRLPRPRPRPCHTPRP, with -0.0292. In the case of RRIRIRPPRLPRPRPRPCHRPRP it was -0.452. Then RRIRQRPPRLPRPRPRPCKIPRP, with -0.0788; and RRIRIRPPRLPRPRPRPTGTPRP, with -0.109. Turning to RRIRSRPPRLPRPRPRPPHEPRP, the “shrunken log2 fold change” value worked out at 0.229.

For the sequence RRIRCRPPRLPRPRPRPVQNPRP, the “shrunken log2 fold change” value was -0.22. RRIRGRPPRLPRPRPRPNHDPRP: the “shrunken log2 fold change” value is -0.185. In the case of RRIRGRPPRLPRPRPRPMNQPRP it was 0.0945; in that of RRIRLRPPRLPRPRPRPAYQPRP, -0.142. In the case of RRIRCRPPRLPRPRPRPASVPRP it was 0.176. As to RRIRDRPPRLPRPRPRPGPYPRP, the “shrunken log2 fold change” value is -0.079. In the case of RRIRHRPPRLPRPRPRPIGDPRP it was -0.00136; in that of RRIRCRPPRLPRPRPRPHFLPRP, -0.657. Then RRIRCRPPRLPRPRPRPMDHPRP, with -0.904; and RRIRLRPPRLPRPRPRPSLEPRP, with -0.209; and RRIRYRPPRLPRPRPRPLHPPRP, with -0.0607.

As to RRIRNRPPRLPRPRPRPMFGPRP, the “shrunken log2 fold change” value is -0.23.

Regarding RRIRDRPPRLPRPRPRPQGCPRP, the “shrunken log2 fold change” value is 0.0122. Take RRIRNRPPRLPRPRPRPNKVPRP: the “shrunken log2 fold change” value was -0.642.

Turning to RRIRTRPPRLPRPRPRPNLYPRP, the “shrunken log2 fold change” value was -0.255. For RRIRARPPRLPRPRPRPHECPRP, the “shrunken log2 fold change” value turned out to be 0.423. Turning to RRIRMRPPRLPRPRPRPRAWPRP, the “shrunken log2 fold change” value was 0.32.

As to RRIRGRPPRLPRPRPRPYYFPRP, the “shrunken log2 fold change” value was 0.0211. Consider RRIRIRPPRLPRPRPRPSQTPRP, for which the “shrunken log2 fold change” value was -0.0359.

Consider RRIRTRPPRLPRPRPRPDGGPRP, for which the “shrunken log2 fold change” value was -0.145. In the case of RRIRQRPPRLPRPRPRPWTDPRP it was 0.0166; in that of RRIRERPPRLPRPRPRPGWPPRP, 0.398. Then RRIRYRPPRLPRPRPRPFGFPRP, with -0.918; and RRIRERPPRLPRPRPRPWLVPRP, with -0.436; and RRIRDRPPRLPRPRPRPKVEPRP, with 0.109. Take RRIRNRPPRLPRPRPRPPKMPRP: the “shrunken log2 fold change” value is -0.168. In the case of RRIRRRPPRLPRPRPRPNFCPRP it was 0.171.

For the sequence RRIRDRPPRLPRPRPRPCKLPRP, the “shrunken log2 fold change” value was -0.0175. On to RRIRGRPPRLPRPRPRPFQQPRP, for which the “shrunken log2 fold change” value is -0.0372. For RRIRTRPPRLPRPRPRPWTTPRP, the “shrunken log2 fold change” value amounted to 0.176.

On to RRIRCRPPRLPRPRPRPQLFPRP, for which the “shrunken log2 fold change” value is -0.242. In the case of RRIRRRPPRLPRPRPRPLSWPRP it was 0.361; in that of RRIRMRPPRLPRPRPRPQRFPRP, -0.0093. Then RRIRMRPPRLPRPRPRPIFIPRP, with 2.07; and RRIRLRPPRLPRPRPRPFSPPRP, with 2.3; and RRIRTRPPRLPRPRPRPELLPRP, with 0.39. On to RRIRCRPPRLPRPRPRPELWPRP, for which the “shrunken log2 fold change” value is 0.732. Then RRIRFRPPRLPRPRPRPYVAPRP, with -0.62.

In the case of RRIRDRPPRLPRPRPRPCWSPRP, the “shrunken log2 fold change” value was -0.00281.

For RRIRDRPPRLPRPRPRPYVWPRP, the “shrunken log2 fold change” value was -0.579. As for RRIRGRPPRLPRPRPRPAWFPRP, the “shrunken log2 fold change” value amounted to 0.652. Turning to RRIRDRPPRLPRPRPRPQNVPRP, the “shrunken log2 fold change” value is -0.01. In the case of RRIRQRPPRLPRPRPRPCTQPRP it was -0.0306.

RRIRIRPPRLPRPRPRPIRDPRP: the “shrunken log2 fold change” value was -0.0759. Then RRIRLRPPRLPRPRPRPWHKPRP, with -0.0761; and RRIRVRPPRLPRPRPRPCNMPRP, with -0.247; and RRIRLRPPRLPRPRPRPYFAPRP, with -0.233. Take RRIRIRPPRLPRPRPRPFPNPRP: the “shrunken log2 fold change” value was -0.939.

Regarding RRIRLRPPRLPRPRPRPMWTPRP, the “shrunken log2 fold change” value is -0.0582. Then RRIRDRPPRLPRPRPRPGGLPRP, with 0.501; and RRIRRRPPRLPRPRPRPANSPRP, with 0.0678. Consider RRIRFRPPRLPRPRPRPYKRPRP, for which the “shrunken log2 fold change” value was -0.827.

As to RRIRRRPPRLPRPRPRPHWMPRP, the “shrunken log2 fold change” value worked out at 0.122. Then RRIRERPPRLPRPRPRPGLQPRP, with 0.103; and RRIRWRPPRLPRPRPRPWCVPRP, with -0.032; and RRIRWRPPRLPRPRPRPSYDPRP, with -0.256. Then RRIRTRPPRLPRPRPRPCMCPRP, with -0.222; and RRIRQRPPRLPRPRPRPSVPPRP, with -0.0859; and RRIRERPPRLPRPRPRPMLGPRP, with 0.00848. In the case of RRIRNRPPRLPRPRPRPEIEPRP it was 0.0339; in that of RRIRERPPRLPRPRPRPNFNPRP, -0.376. Regarding RRIRSRPPRLPRPRPRPFCWPRP, the “shrunken log2 fold change” value amounted to 0.651. Then RRIRARPPRLPRPRPRPYKKPRP, with -0.0244; and RRIRCRPPRLPRPRPRPMSFPRP, with -0.29; and RRIRSRPPRLPRPRPRPTNDPRP, with -0.162.
